US20250223317A1, “KEAP1 INHIBITING PROTEIN-LIKE POLYMERS” (NORTHWESTERN UNIVERSITY, priority 2022, published 2025)

System: Antioxidant Response Element (ARE) Luciferase HepG2 Reporter cells
Procedure: Cells were plated at a seeding density of 25k cells/well into 96 well plates in cell growth media and allowed to incubate for 24 hours. […] After 24 hours, 10 μL of MTS reagent was added to each well, and the cells incubated for four hours at 37° C. Absorbance was measured at 490 nm using a Perkin Elmer EnSpire plate reader every hour after MTS addition. Viability was assessed after background subtraction from cell free control wells and calculated as relative viability based on the average of control wells. Viability is reported as a percentage of control groups and prepared for presentation using Prism9.
The reporter and cell viability assays were performed over a concentration range of 0 μM to 10 μM for each of the polymers described.
Cells were plated at a seeding density of 25k cells/well into 96 well plates in cell growth media and allowed to incubate for 24 hours. […] Luminescence was assessed using the Biotek SynergyNeo2 plate reader at the High Throughput Analysis Core at Northwestern University. Background luminescence of cell free controls wells was subtracted from test wells. […] Absorbance was measured at 490 nm using a Perkin Elmer EnSpire plate reader every hour after MTS addition. Viability was assessed after background subtraction from cell free control wells and calculated as relative viability based on the average of control wells. […]

DLG Homopolymer (RQDIDLGVSRR)
tolerability (MTS assay): well tolerated
